Data reported in patent US20060294618A1 (CORNELL RESEARCH FOUNDATION, published 2006).
Numbering of substitutions follows the chain as printed.

Legend:
[1] = molecular target: T1, TEV-HAT VPg, yeast two-hybrid bait fusion protein expressed from pEG202 (Tobacco etch virus, strain HAT, UniProt P0A7C2 1-202; P04517 1850-2037); experiment: yeast two-hybrid, beta-galactosidase assay
T1 sequence (looked up): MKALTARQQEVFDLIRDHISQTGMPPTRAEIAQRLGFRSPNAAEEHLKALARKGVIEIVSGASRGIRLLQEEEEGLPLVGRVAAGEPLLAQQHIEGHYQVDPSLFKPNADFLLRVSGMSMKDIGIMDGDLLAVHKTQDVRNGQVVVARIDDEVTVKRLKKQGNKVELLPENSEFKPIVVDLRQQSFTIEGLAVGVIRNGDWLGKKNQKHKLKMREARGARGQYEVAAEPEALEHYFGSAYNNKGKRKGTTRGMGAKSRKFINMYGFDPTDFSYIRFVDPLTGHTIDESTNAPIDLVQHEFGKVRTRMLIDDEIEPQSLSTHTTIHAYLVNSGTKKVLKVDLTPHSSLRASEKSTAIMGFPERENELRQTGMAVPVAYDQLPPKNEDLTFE
Excerpt: Bait plasmid pEG202 was used to express the fusion protein TEV-HAT VPg. The prey plasmid pJG4-5 was used to express pepper eIF4E. pEG202: Pto and PJG4-5:AvrPto were served as a positive control.

GST-VPgHAT = molecular target: T2, GST-VPgHAT (Tobacco etch virus, strain HAT, UniProt P04517 1850-2037); experiment: GST pull-down, 35S-labeled in vitro-translated eIF4E
T2 construct: Immobilized on glutathione-Sepharose 4B beads; also called TEV-HAT VPg (GST fusion); not shown: glutathione S-transferase (GST)
T2 sequence (looked up): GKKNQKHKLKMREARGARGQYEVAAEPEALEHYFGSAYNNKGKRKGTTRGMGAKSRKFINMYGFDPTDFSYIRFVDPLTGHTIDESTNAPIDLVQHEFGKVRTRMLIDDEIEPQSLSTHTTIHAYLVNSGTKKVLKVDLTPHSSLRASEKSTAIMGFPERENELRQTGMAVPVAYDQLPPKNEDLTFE

B1: eIF4E-234 mutant translation initiation factor eIF4E (Capsicum chinense PI 159234, pvr1 allele), yeast two-hybrid prey fusion expressed from pJG4-5 (other)
chain: MATAEMEKTTTFDEAEKVKLNANEADDEVEEGEIVEETDDTTSYLSKEIAAKHPLEHSWTFWFDNTVAKSRQAAWGSSLRNVYTFSTVEDFWGAYNNIHHPSKLVVRADLHCFKHKIEPKWEDPVCANGGTWKMSFSKGKSDTSWLYTLLAMIGHQFDHEDEICGAVVSVRGKGEKISLWTKNAANETAQVSIGKQWKQFLDYSDSVGFIFHDDAKRLDRNAKNRYTV
notes: not shown: fusion partner encoded by prey plasmid pJG4-5
[1]
  binding result: no binding

B2: eIF4E-234 (pvr1), 35S-labeled, translated in vitro from pET16b (other)
chain: B1 chain
modifications: 35S-labeled (in vitro translation in reticulocyte lysate)
notes: also called resistant allele
GST-VPgHAT
  binding result: no binding

B3: eIF4E-YY (pvr2^1 / pvr1^1), 35S-labeled, translated in vitro from pET16b (other)
chain: B1 chain with A51T, T66P, V67E, R71K, L79R, R107G
modifications: 35S-labeled (in vitro translation in reticulocyte lysate)
notes: also called YY (pvr1^1); resistant allele
GST-VPgHAT
  binding result: no binding

B4: eIF4E-DEMP (pvr2^2 / pvr1^2), 35S-labeled, translated in vitro from pET16b (other)
chain: B1 chain with A51T, T66P, V67E, R71K, L79R, R107G, D109N
modifications: 35S-labeled (in vitro translation in reticulocyte lysate)
notes: also called DEMP (pvr1^2); resistant allele
GST-VPgHAT
  binding result: no binding
